Source: the supplement of paper PMC12042874
± gives the uncertainty stated by the source.

Experiment: amyloid nucleation score (Sup35N fusion, yeast selection) (log enrichment); library NNK1; higher = more nucleation; inactive = no reads after selection
Procedure, shortened: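 Plasmid inserts were Illumina-sequenced at input and output from psi-negative yeast expressing Sup35N fused to peptides of 20 random codons. The yeast were induced with 100 μM copper sulfate for 24 hours and grown 7 days at 30°C on medium lacking adenine and uracil, and sequences with under 100 input reads were excluded. Nucleation score is the DiMSum log enrichment of output over input reads, centred on the mode score of non-aggregating sequences.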

Substance	amyloid nucleation score
HYIVDLEQLQWDVWGIFSDS	0.058 ± 0.73
HYMRWIGLRTDTKGPRSGSG	-0.578 ± 0.86
HYRSHSIGIRFAVSDWRIAF	0.844 ± 0.46
HYTLIESSNRSANNEPQVTH	0.353 ± 0.88
IAAVFHCKNSLMY	2 ± 0.2
IACPYRHNGCNTRLRNINAV	-0.316 ± 0.42
IADGTLTVSL	0.609 ± 0.32
IALNRMFSISLVFYDKGFWY	inactive
IAMKPENK	-0.997 ± 0.57
IATFGVTMSNSWT	2.84 ± 0.13
IATKGKDVVFVRCGPDPQL	1.04 ± 0.53
IATYCYLFSCWFIYVLT	0.992 ± 0.84
IAYDRRFIDLTRFIAIKFYI	-0.021 ± 0.93
ICFCL	7.772 ± 0.054
ICGNSSTEASGL	0.039 ± 0.56
ICICLMLSVIGSSSHVLLDW	1.08 ± 0.72
ICLYGACYFGVVWSKGGPGK	-0.634 ± 0.32
ICMKLLFEYLVPVLRQAH	-0.307 ± 1.2
ICSVRSTQVGEKTSLPWLCR	0.371 ± 0.41
ICVLCC	1.15 ± 0.62
ICVMS	inactive
ICWRMKVMWPYRTIGSSLTF	1.02 ± 0.45
IDCGSFSYKQSMQLMCKSAQ	-0.19 ± 0.28
IDHPTVKLIRYSAIHIALVT	0.093 ± 0.28
IDMLFPFCCVALRSHRSLEG	0.722 ± 0.46
IEEPIYDSKHLPKMRSTGYT	0.486 ± 0.35

Substance	amyloid nucleation score
IEGWHTRVHRRTLIVMCLIG	1.09 ± 0.41
IEIIIASSGHHHYIKRDNVY	0.652 ± 0.58
IEISDMSWFRPVMFNDAKEL	1.44 ± 0.53
IENSIGGMQLGVSISYMSGT	0.208 ± 0.41
IEWFVLGDYMCTAQSVCGLV	-1.26 ± 1.3
IFCAPLTTSQIALRVYNRRL	0.727 ± 0.88
IFDSFQATLCLGCLMLLSYF	0.423 ± 0.44
IFHGWVTGCCLVDNLLFYCT	5.42 ± 0.1
IFMRSAERGMRVLLEDDCRT	0.256 ± 0.61
IFNSEVVSSLIRVVSMNMEG	0.654 ± 0.21
IFPCNFSGNYLRKVWFPVRY	0.42 ± 0.91
IFSCGIGHWV	0.462 ± 0.49
IFSRSEEFVFFGHINSV	1.68 ± 0.32
IFTRLSLSFHNLGLGWKTRV	-0.248 ± 0.38
IFVFWTALSTSHNGWGVPVM	inactive
IFWGWSIQG	1.17 ± 0.58
IFYSSFS	inactive
IGAGL	-1.07 ± 2.4
IGAHFQSNLVIKVNSLEN	0.697 ± 0.63
IGALTSHAHQNVCVCNLLKD	0.307 ± 0.81
IGDRKMSY	0.145 ± 0.71
IGESVHKLSFWCDSGECF	0.073 ± 0.31
IGGPYLVGSHKLKLWPWLES	-0.575 ± 0.34
IGLRWYSFLLRMSGLSSTGA	-0.23 ± 0.24
IGMQLMVKTSLRHYGMYHTA	1.65 ± 0.44
IGPGLSSR	-0.521 ± 0.63

Substance	amyloid nucleation score
IGSGYW	-0.091 ± 0.52
IGSNK	-1.38 ± 0.86
IGVCILTDRLHD	inactive
IGYCKWGSDYGCESAT	1.07 ± 0.93
IGYCSSGQNDPNIASLYCFH	-1.19 ± 0.81
IHALLRQNMD	-0.599 ± 0.39
IHEMTSWVTCRFCGVFKYIL	2.03 ± 0.13
IHHKD	-0.616 ± 0.24
IHWNWWIRLCGFPFAFYISG	0.233 ± 0.32
IICFVVISWTRFLMSQKCFC	-0.143 ± 0.35
IICICLVIISFRFCFSIKFM	-2.57 ± 2.7
IIFGRGFFSHSGVRTNQCYT	-1.43 ± 1
IIFNEIIHMQFDNIGDV	3.27 ± 0.17
IIIACFVSCNELVGVSVIKT	0.037 ± 0.25
IILFNRILLV	inactive
IIRNVTL	0.263 ± 0.24
IISISINGSVRWSCTRSGAD	0.499 ± 0.53
IISRRCKML	1.37 ± 0.5
IIVFGSLEELVGAGLLGRLR	-0.106 ± 1.7
IKMSSRYFMLGTLLSPGLEV	inactive
IKVQASQDP	9.252 ± 0.05
ILAVLVTYIANTACSWYYVF	0.052 ± 0.64
ILERSHRVGYCAHLLCISVN	0.171 ± 0.63
ILFGTAHCIIG	1.52 ± 0.13
ILGVSMPPFYSV	-0.532 ± 0.84
ILHDNFKSSELFAWSAYCRY	inactive

Substance	amyloid nucleation score
ILIDYRGSEPG	0.224 ± 1.4
ILKATHGSHDIYPAWNGRIS	3.2 ± 0.12
ILNYVRPCS	0.416 ± 0.56
ILPEPGMLFDIILNLHAKKF	2.65 ± 0.11
ILSGVFLIRIEAKSNK	-0.179 ± 1.2
ILSRCVC	0.608 ± 0.37
ILVHSMGFLGKRYCGCMWGD	3.41 ± 0.13
ILVVGWFFHLGCLTMSDVVV	0.225 ± 1.1
ILYFLPNFHIMLSLI	inactive
ILYMLPILRKLVSFEFNYIC	0.117 ± 0.21
ILYTCSSQSASFTGLWTSGL	2.03 ± 0.16
IMNMSSNIRK	-0.539 ± 0.34
IMSCDERWN	0.287 ± 0.23
IMTPIRGNN	0.209 ± 0.34
IMVANVSPSQKFNG	0.346 ± 0.4
IMVHWMIYCGRMYLHCSSIV	0.086 ± 0.97
INAFYVVLIIRYVPSSKLLI	inactive
INCQMWYRGPYIIQFLNLGW	6.846 ± 0.055
INGFYCCRV	0.787 ± 0.21
INLNRHGSLE	1.6 ± 0.39
INMYWY	-0.031 ± 0.31
INNIVK	0.602 ± 0.29
INQLRITWLD	2.46 ± 0.12
INSNWASLRDRYARIASRSS	-0.372 ± 0.47
IPLAGLFYSFWISLHTRSNT	-0.308 ± 0.52
IPMPLCCVIPPWFTTFFVNQ	4.81 ± 0.092

Substance	amyloid nucleation score
IPRYVYIGLTPKAVLKQNLA	-1.04 ± 0.84
IQNDCILVNSVSWYCVSGPP	5.29 ± 0.064
IQTKGNKDVIGVYITMYTRL	-0.671 ± 0.28
IQYNSKIRVFALDYPIEFPC	0.083 ± 0.61
IREFRRL	0.313 ± 0.65
IRMVMGTNKFDHVKSRDN	inactive
IRNIRRI	-0.262 ± 0.28
IRPLIFVIGHN	0.794 ± 0.5
IRTMSGNDKPI	-0.36 ± 0.33
IRWTEL	0.512 ± 0.24
ISFCGTRGFK	0.154 ± 0.75
ISGRVGAWSPIVYWPLRRGG	-0.573 ± 0.61
ISGSHFVSLPV	0.518 ± 0.38
ISGTLGSRVMGLSAWVRVSR	-0.114 ± 0.38
ISIRIEDFLYSQ	0.237 ± 0.57
ISLDFDNYRVILLKRLVGVM	-0.594 ± 0.33
ISNYNFNRWHAVSNLGRCIS	-0.033 ± 0.73
ISSLTV	-1.33 ± 0.68
ISTRQMFVYLRVHCFIDAVE	0.043 ± 0.48
ISTSC	0.778 ± 0.49
ISVHIFKGLYRSKSVAWRNV	-0.069 ± 1.1
ISVLVHMMRKAFVQG	0.768 ± 0.39
ISWQAVTSRGTCNN	-1.01 ± 0.68
ISYRNLIRFCFSPYAKLWRF	0.69 ± 0.52
ITEVLKNVKKWFCFIRISVG	0.113 ± 0.5
ITFERGYCTKNITFATTTCP	1.23 ± 0.47
